The target of one series is T1, IGF-I receptor (Rattus norvegicus, UniProt P24062).
T1 construct: Brain tissue containing the cerebral cortex and cerebellum was dissected from adult Sprague-Dawley rats; from tissue; host or cells: adult Sprague-Dawley rat brain (cerebral cortex and cerebellum), homogenate pellet
Kind of series: 125I-[Threonine59]IGF-I displacement (IGF-I receptor competition) assay, rat brain homogenate. In kind it is binding. The procedure: Brain tissue containing the cerebral cortex and cerebellum was dissected from adult Sprague-Dawley rats (Hilltop Lab Animals, Inc. Scottsdale, Pa.) and homogenized at low power for 5 minutes in a Brinkmann Polytron homogenizer (Westbury, N.Y.) containing 50 volumes of ice-cold buffer consisting of 10 mM HEPES, 0.5% BSA, 0.0125% NEM, 0.025% bacitracin, and 100 KIU/ml aprotinin, pH 7.6 (Bohannon et al., Endocrinology 119:943-945 (1986). Following homogenization, the tissue was collected after centrifugation at 7800×g for 20 minutes and resuspended in 10 volumes of assay buffer. Tissue (50 μl), 100 μl ^125I-[Threonine^59]IGF-I (20 pM), and 50 μl of buffer or peptides of varying concentration were added to 96-well plates and incubated on ice for 3 hours. After the incubation period, the tissue was collected on Whatman GF/C filters that had been pre-soaked in 0.01% polyethylenimine and washed four times with ice-cold assay buffer using a Brandel cell harvester (Gaithersburg, Md.). The filters were removed and the bound ^125I-[Threonine 59]IGF-I was measured using a Beckman Model 5500B Gamma Counter.

Series [1] has as its system 125I-[Threonine59]IGF-I binding to brain tissue sections. Kind of series: 125I-[Threonine59]IGF-I binding displacement on rat brain tissue sections. The procedure: Brains were removed intact from adult Sprague-Dawley rats, frozen on powdered dry ice, and cut into 20 μm sections (at the level of the cerebellum and brain stem) which were
thaw-mounted onto gelatin-coated glass microscope slides (Herkenham and Pert, J. Neurosci. 2:1129-1149 (1982)). Using a modification of the method of Bohannon et al. (1986), the tissue sections were covered with 250 μl of HEPES assay buffer (see Example 1) containing 0.01 nM ^125I-[Threonine^59]IGF-I alone or in combination with unlabeled IGF-I, IGF-II, or synthetic peptide fragments thereof. The sections were incubated at 4° C. for 24 hours and then rinsed in three 1-minute changes (200 ml each) of ice-cold HEPES assay buffer. The tissue sections were then wiped off the slides with filter paper, and the tissue-bound radioactivity was measured in a Beckman Model 5500B Gamma Counter.

The test system of series [2] is 14-day embryonic rat spinal cord neurons. Nature of the series: Choline acetyltransferase activity in dissociated embryonic rat spinal cord neuron cultures. To be noted: 48 hr incubation. In kind it is cell-based. The procedure:
The activity of IGF-I, IGF-II, or synthetic peptide derivatives of these molecules was assayed on dissociated cultures of 14-day embryonic rat spinal cord neurons. The spinal cord neurons were obtained from trypsin-dissociated spinal cords, plated, incubated with peptides, and subsequently (48 hr later) assayed for choline acetyltransferase activity as described by […] et al., Dev. Biol. 125:311-320 (1988).

In series [3] the test system is brain ornithine decarboxylase. Nature of the series: Induction of brain ornithine decarboxylase after intraventricular injection, adult rats. In kind it is in vivo, rat. To be noted: 6 hours, cerebral cortex, medial septum, hippocampus. The protocol:
To determine whether the induction of brain ornithine decarboxylase by IGF-I was limited to developing animals, IGF-I was also injected intraventricularly into the lateral ventricles of adult Sprague-Dawley rats. After 6 hours, the brains were removed, dissected into several regions (cerebral cortex, medial septum, and hippocampus), and then assayed for ornithine decarboxylase activity as described in Example 4.

Series [4] relates to cultured rat cortical cells. Kind of series: [3H]-leucine incorporation in cultured rat cortical cells. In kind it is cell-based. To be noted: low density 24 hour mixed cortical cultures. The procedure: The ability of IGF-I and a synthetic derivative of IGF-II (IGF-II(54-67)) to increase the incorporation of [^3H]-leucine and to promote the survival of neurite bearing cells was examined in cultured rat cortical cells (the numbers “54-67” in IGF-II indicate the fragment includes amino acid residues 54-67 of native IGF-II).
Measurements were performed, using standard techniques known to those skilled in the art, on dissociated cortical cells obtained from day 18-19 embryonic rats. Cells were seeded at 1.5×10^4/cm^2 on poly-1-ornithine-laminin coated plastic tissue culture cells in serum-free N2 medium (Bottenstein et al. Proc. Natl. Acad. Sci. U.S.A. 76: 514-517 (1978)). [^3H]-leucine was added to cells at plating for the incorporation assay. Cultures were terminated 24 hours after plating and measured for either [^3H]-leucine incorporation or for the number of neuritic cells by microscopic examination.

Series [5] deals with 14.5 day embryonic rat spinal cord neurons. Kind of series: Choline acetyltransferase activity in 14.5 day embryonic rat spinal cord neurons, serum-free. In kind it is cell-based. To be noted: serum-free and insulin-free N2 medium, 48 hr. The protocol:
The activity of IGF-I, IGF-II and IGF-III was assayed on dissociated cultures of 14.5 day embryonic rat spinal cord neurons. The spinal cords were removed from embryos and dissociated in 0.05% trypsin in Dulbecco's Phosphate Buffered Saline (DPBS). Dissociated cells were seeded onto poly-1-ornithine substrates in 96 well microtiter plates at 2×10^5 cells/well in 200 μl of serum-free and insulin-free N2 medium (Bottenstein and Sato, 1979 supra) containing 0.05% bovine serum albumin. After a 48 hr incubation at 37° C. in a humidified atmosphere of 5% CO2, 95% air, cultures were assayed for choline acetyltransferase activity according to a modification (McMananman et al., Dev. Bio., 25:311-320 (1988)) of the technique described by Fonnum (Fonnum, J. Neurochem. 24:405-409 (1975)).

For series [6], the system named is fetal rat cortical neuronal cultures. Nature of the series: Fetal rat cortical neuron survival by [3H]leucine incorporation. In kind it is cell-based. The procedure: The neuronal survival promoting activity of IGF-I and IGF-II was assayed on fetal rat cortical neuranal cultures. Cerebral cortices were removed from embryonic day 18 fetal rats. Cortices were minced and treated with neutral protease (Dispase, Collaborative Research) to yield dissociated cell preparations. Cells were plated at low density (5×10^3 cells/well) onto poly-L-ornithine and laminin coated ½ area 96 well plates in 50 μl of serum and insulin-free N2 medium containing 0.05% BSA and 50 μM leucine. IGF-I or II were present from time of seeding. Control cultures received no growth factor. Cultures were incubated for 24 hr at 37° C. in an atmosphere of 5% CO2, 95% air. After 24 hrs, [^3H]leucine was added in an additional 50 μl of modified N2 medium to a final concentration of 12.5 μCi/ml. Twenty-four hours after the addition of [^3H]leucine, cultures were harvested, protein precipitated on filters with 10% trichloroacetic acid, and dried filters counted in a liquid scintillation counter. The incorporation of [^3H]leucine into cells is an accurate reflection of cell survival, since incorporated [^3H]leucine counts correlated directly with the number of surviving cells as measured by microscopic counts of cells in identical cultures.

T1 sequence (P24062 31-737 limits assumed): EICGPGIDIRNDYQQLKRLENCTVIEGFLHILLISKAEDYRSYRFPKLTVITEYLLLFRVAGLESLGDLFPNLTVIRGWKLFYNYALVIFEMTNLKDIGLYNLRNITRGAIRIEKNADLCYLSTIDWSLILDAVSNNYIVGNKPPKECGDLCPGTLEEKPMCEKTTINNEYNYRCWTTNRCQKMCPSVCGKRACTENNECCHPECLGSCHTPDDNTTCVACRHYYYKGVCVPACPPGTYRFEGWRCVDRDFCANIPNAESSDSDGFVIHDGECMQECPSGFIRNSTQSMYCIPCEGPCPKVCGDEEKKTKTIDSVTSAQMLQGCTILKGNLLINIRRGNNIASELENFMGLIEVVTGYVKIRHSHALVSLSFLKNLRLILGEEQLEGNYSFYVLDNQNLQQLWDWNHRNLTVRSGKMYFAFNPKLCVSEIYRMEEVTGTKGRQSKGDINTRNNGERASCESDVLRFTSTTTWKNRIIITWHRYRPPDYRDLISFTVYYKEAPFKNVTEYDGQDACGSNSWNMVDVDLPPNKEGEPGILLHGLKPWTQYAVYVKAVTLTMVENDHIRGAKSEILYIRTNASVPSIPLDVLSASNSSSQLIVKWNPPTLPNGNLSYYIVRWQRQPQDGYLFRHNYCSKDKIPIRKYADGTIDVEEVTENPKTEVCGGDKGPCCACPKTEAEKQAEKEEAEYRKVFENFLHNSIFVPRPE
T1 sequence (P24062 742-1370 partner limits assumed): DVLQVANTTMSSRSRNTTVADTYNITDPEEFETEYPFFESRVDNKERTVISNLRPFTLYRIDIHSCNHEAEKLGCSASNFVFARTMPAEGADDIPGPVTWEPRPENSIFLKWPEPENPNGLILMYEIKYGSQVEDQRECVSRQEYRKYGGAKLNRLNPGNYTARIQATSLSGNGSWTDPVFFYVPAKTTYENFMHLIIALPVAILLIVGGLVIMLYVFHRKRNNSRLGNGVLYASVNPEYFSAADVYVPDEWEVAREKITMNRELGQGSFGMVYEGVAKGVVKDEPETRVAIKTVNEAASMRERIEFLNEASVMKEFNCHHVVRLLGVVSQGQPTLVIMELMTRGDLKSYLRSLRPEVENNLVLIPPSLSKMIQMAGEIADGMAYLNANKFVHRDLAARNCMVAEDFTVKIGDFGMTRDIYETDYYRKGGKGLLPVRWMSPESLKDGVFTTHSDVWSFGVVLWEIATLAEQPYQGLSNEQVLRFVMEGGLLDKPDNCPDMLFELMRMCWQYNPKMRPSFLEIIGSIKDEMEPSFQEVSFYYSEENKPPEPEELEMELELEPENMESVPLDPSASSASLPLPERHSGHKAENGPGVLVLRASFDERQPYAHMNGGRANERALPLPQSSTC

In the case of “GPETLCGAELVDALQFVCGDRGFYFNKPTGYGSSS-RRAPQTGIVDECCFRSCDLRRLEMYCAPLKPAKSA [IGF-I]”, the “PERCENT MAX. BOUND” value with IGF-I receptor (peptide 10 pM, 20 pM 125I-[Thr59]IGF-I) came to 100%; with IGF-I receptor (peptide 40 nM), 9.6%; in series [1] (peptide 4 pM, 0.01 nM 125I-[Thr59]IGF-I), 91%; in series [1] (peptide 400 pM), 30%. Further, the “displacement of 125I-[Threonine59]IGF-I (in words)” value in the series with IGF-I receptor (rat brain homogenate) was “potent displacers”. For the same substance, in series [1] (rat brain sections), the “displacement of 125I-[Threonine59]IGF-I binding (in words)” value was “potently displaced”. Further, the “choline acetyltransferase activity (in words)” value in series [2] is given as “substantial, dose-dependent increase in choline acetyltransferase activity”; in series [5], “substantial, dose-dependent increase in choline acetyltransferase activity”. Moreover, the “ornithine decarboxylase activity (in words)” value in series [3] is given as “stimulated ornithine decarboxylase activity in all brain regions assayed”. For the same substance, in series [4], the “[3H]-leucine incorporation (in words)” value is “increased [^3H]-leucine incorporation”. Besides, the “relative potency in promoting survival of cortical neurons (in words)” value in series [6] (IGF-I versus IGF-II) is on record as “slightly more potent”. Moreover, the “survival of cortical neurons (in words)” value in series [6] ([3H]leucine incorporation, 48 hr) was “promoted the survival of cortical neurons”.

The values are drawn from US6723699B1, “Treating disorders by application of insulin-like growth factors and analogs” (Cephalon, Inc., priority 1989, dated 2004).
